Our source for the abundance fitness values is the Human Domainome abundance scans (Beltran et al. 2025).

The labels stand for the following.
B1: Serine/threonine-protein kinase A-Raf, residues 21 to 89; numbered along this chain, P10398 (parent)
chain: VKVYLPNKQRTVVTVRDGMSVYDSLDKALKVRGLNQDCCVVYRLIKGRKTVTAWDTAIAPLDGEELIVE

± gives the uncertainty stated by the source.

Variants of B1 are the subject of the series. Nature of the series: abundance fitness (aPCA) (normalised: wild type 0, dead -1); higher = more abundant; growth selection in yeast, the domain comes from the species named. To be noted: Homo sapiens.
Take V51K: the abundance fitness is -0.001 ± 0.076. As to V51Y, the abundance fitness was -0.255 ± 0.2. As for V51G, the figure is -0.662 ± 0.11. As for V51T, the figure is -0.324 ± 0.15. As for V3F, the figure is -0.552 ± 0.092. In the case of V3K, the abundance fitness was -0.622 ± 0.11.

For V13R, the abundance fitness is -0.78 ± 0.078. The same measure for V13S: -1 ± 0.17.

With V13L, the abundance fitness is -0.202 ± 0.048. V13F: the abundance fitness is -0.795 ± 0.2.

On to G18S, for which the abundance fitness was -0.239 ± 0.053. As for G18D, the figure is -0.143 ± 0.2; as for G18T, -0.405 ± 0.064.

Regarding G18Q, the abundance fitness is -0.305 ± 0.11. The same measure for G18C: -0.261 ± 0.084; for A53D: -0.03 ± 0.14; for A53K: -0.079 ± 0.06.

Turning to A53Q, the abundance fitness is -0.078 ± 0.064. The same measure for A53P: 0.032 ± 0.075; for A53H: -0.098 ± 0.07; for A53R: -0.149 ± 0.056. The same measure for W54V: -0.913 ± 0.14; for W54M: -0.499 ± 0.1; for G47S: -0.734 ± 0.11.

As to G47Q, the abundance fitness is -0.359 ± 0.14. As for G47F, the figure is -0.998 ± 0.25; as for R10T, 0.111 ± 0.063.

Turning to R10M, the abundance fitness amounted to 0.139 ± 0.06. Turning to R10H, the abundance fitness was 0.041 ± 0.12.

As for R10E, the abundance fitness came to 0.118 ± 0.064.

With R10K, the abundance fitness was -0.002 ± 0.058. With R10D, the abundance fitness is -0.281 ± 0.092. As for R10G, the figure is -0.158 ± 0.045; as for R10Y, 0.051 ± 0.096. Turning to R10L, the abundance fitness is -0.059 ± 0.047. The same measure for N35D: -0.132 ± 0.12; for N35R: -0.101 ± 0.04.

With N35T, the abundance fitness was 0.025 ± 0.064.

With N35K, the abundance fitness is -0.063 ± 0.086. N35A: the abundance fitness was -0.188 ± 0.066.

Take N35W: the abundance fitness is -0.866 ± 0.15. Take N35F: the abundance fitness is -0.449 ± 0.18.

As for N35G, the abundance fitness was -0.154 ± 0.041. As for V31R, the figure is 0.004 ± 0.046. As for V31I, the figure is -0.076 ± 0.07. Turning to V31D, the abundance fitness was -0.265 ± 0.25. In the case of V31A, the abundance fitness is 0.111 ± 0.056. The same measure for V31G: -0.086 ± 0.04; for K46V: -0.792 ± 0.089.

With K46N, the abundance fitness was determined as 0.228 ± 0.17. As for D17Y, the abundance fitness is -0.319 ± 0.075.

On to D17C, for which the abundance fitness is -0.418 ± 0.1. On to D17A, for which the abundance fitness came to 0.039 ± 0.058. For the variant D17Q, the abundance fitness was 0 ± 0.06. The same measure for D17E: -0.032 ± 0.067; for D17F: -0.114 ± 0.15; for D17T: -0.178 ± 0.055.

On to E65F, for which the abundance fitness was -0.607 ± 0.25. As for E65C, the figure is -0.122 ± 0.14. The same measure for E65D: -0.136 ± 0.081.

E65T: the abundance fitness is -0.01 ± 0.097. With E65K, the abundance fitness was -0.122 ± 0.071.

Take E65W: the abundance fitness was -0.515 ± 0.18. As for L61N, the figure is -0.371 ± 0.15; as for L61E, -0.25 ± 0.087; as for L61K, -0.142 ± 0.066. For the variant L61R, the abundance fitness was -0.108 ± 0.043.

Regarding L61P, the abundance fitness was -0.631 ± 0.38. The same measure for L61V: -0.112 ± 0.057. The same measure for R32E: -0.193 ± 0.045; for R32M: 0.12 ± 0.06; for R32C: -0.162 ± 0.21. For R32F, the abundance fitness is -0.009 ± 0.26. The same measure for R32K: -0.369 ± 0.068; for R32N: 0.141 ± 0.13.

For R32Y, the abundance fitness is -0.012 ± 0.19. Regarding T56Y, the abundance fitness is -0.225 ± 0.075. Turning to T56R, the abundance fitness is -0.276 ± 0.029. The same measure for T56N: -0.278 ± 0.3; for T56E: 0.106 ± 0.037. Take T56F: the abundance fitness is -0.693 ± 0.17.

For T56C, the abundance fitness is -0.09 ± 0.085. For I45E, the abundance fitness was -0.224 ± 0.079.

For the variant I45V, the abundance fitness was -0.067 ± 0.12.

Regarding I45P, the abundance fitness was -1.1 ± 0.32. The same measure for I45T: -0.319 ± 0.12. Take I45A: the abundance fitness was -0.318 ± 0.079. The same measure for I45Y: -0.077 ± 0.19; for I45H: -0.026 ± 0.14; for I45M: -0.508 ± 0.12. In the case of L29T, the abundance fitness is -0.845 ± 0.2. Take L29P: the abundance fitness was -0.958 ± 0.096. The same measure for L29N: -0.607 ± 0.25; for L29R: -0.969 ± 0.099; for D55C: -0.52 ± 0.087.

Take D55I: the abundance fitness is -0.452 ± 0.14. As to D55F, the abundance fitness is -0.872 ± 0.13. For the variant D55Q, the abundance fitness is -0.024 ± 0.045.

D55V: the abundance fitness was -0.773 ± 0.062.

Consider D55A, for which the abundance fitness was -0.346 ± 0.041.

With A59P, the abundance fitness was -0.646 ± 0.12. As for A59Q, the figure is -0.008 ± 0.086.

Regarding A59S, the abundance fitness is 0.002 ± 0.027. The same measure for A59Y: 0.01 ± 0.44; for D37Q: 0.14 ± 0.15; for D37T: -0.387 ± 0.16.

Consider D37C, for which the abundance fitness was -0.273 ± 0.098. As for D37L, the figure is -0.567 ± 0.089; as for D37Y, -0.408 ± 0.15; as for S24K, -0.912 ± 0.17. For the variant S24Q, the abundance fitness is -0.411 ± 0.071. Consider S24V, for which the abundance fitness was determined as 0.031 ± 0.05. As to S24R, the abundance fitness is -0.914 ± 0.091. The same measure for S24F: -0.349 ± 0.087; for S24W: -0.35 ± 0.061.

For the variant N7I, the abundance fitness is -0.936 ± 0.15. As for N7G, the figure is 0.041 ± 0.026; as for N7Y, -0.19 ± 0.087.

In the case of N7M, the abundance fitness is -0.406 ± 0.039. As for N7Q, the figure is -0.216 ± 0.071; as for N7T, -0.655 ± 0.072; as for R16F, -0.169 ± 0.079. With R16I, the abundance fitness was -0.073 ± 0.1. The same measure for R16Y: 0 ± 0.087; for R16E: -0.037 ± 0.062; for R16V: -0.133 ± 0.044. As for R16A, the figure is -0.027 ± 0.045; as for R16S, -0.048 ± 0.042; as for R16M, -0.181 ± 0.082. As for R16K, the figure is -0.045 ± 0.052; as for K27Q, -0.39 ± 0.37; as for K27R, -0.046 ± 0.2. As to D23V, the abundance fitness was -0.389 ± 0.039. As for D23Y, the figure is -0.825 ± 0.21; as for D23P, -0.931 ± 0.23.

Turning to D23K, the abundance fitness was -0.106 ± 0.077.

For D23R, the abundance fitness is -0.283 ± 0.045. The same measure for D23W: -0.338 ± 0.053; for D23A: -0.201 ± 0.05; for D62Y: -0.311 ± 0.16. Turning to D62A, the abundance fitness was found to be 0.004 ± 0.064.

For the variant D62S, the abundance fitness came out at 0.036 ± 0.058. With D62P, the abundance fitness was -0.095 ± 0.073. The same measure for D62F: -0.608 ± 0.19; for D62E: -0.128 ± 0.073.

In the case of D62G, the abundance fitness is -0.047 ± 0.045. With L5W, the abundance fitness amounted to 0.113 ± 0.062. The same measure for L5R: -1.1 ± 0.12; for L5S: -0.818 ± 0.1. For the variant T11M, the abundance fitness is -0.002 ± 0.059.

In the case of T11F, the abundance fitness was -0.08 ± 0.073.

As for T11I, the abundance fitness is -0.072 ± 0.1.

On to T50E, for which the abundance fitness is -0.515 ± 0.38.

As to T50P, the abundance fitness is -0.715 ± 0.21. Turning to L34H, the abundance fitness was -0.789 ± 0.22. The same measure for L34P: -0.833 ± 0.15; for L34R: -1 ± 0.12; for L34S: -0.835 ± 0.17. With L34F, the abundance fitness is -0.074 ± 0.14. With D26G, the abundance fitness was -0.1 ± 0.047. On to D26A, for which the abundance fitness was 0.069 ± 0.071. The same measure for D26Q: 0.179 ± 0.098; for D26T: -0.277 ± 0.12.

D26R: the abundance fitness was 0.023 ± 0.051. Take A28R: the abundance fitness was -1.06 ± 0.14. The same measure for A28Y: -0.274 ± 0.14; for A28G: -0.78 ± 0.09.
